Source: article PMC4822050, “Hemi-methylated DNA opens a closed conformation of UHRF1 to facilitate its histone recognition” (Nature Communications, 2016)

B1: Spacer of UHRF1 (residues 587–674) [human] / TTD of UHRF1 (residues 134–285) [human] (parent)
chain 1: PGPWTKEGKDRIKKLGLTMQYPEGYLEALANREREKENSKREEEEQQEGGFASPRTGKGKWKRKSAGGGPSRAGSPRRTSKKTKVEPY
chain 2: LYKVNEYVDARDTNMGAWFEAQVVRVTRKAPSRDEPCSSTSRPALEEDVIYHVKYDDYPENGVVQMNSRDVRARARTIIKWQDLEVGQVVMLNYNPDNPKERGFWYDAEISRKRETRTARELYANVVLGDDSLNDCRIIFVDEVFKIERPGE

Variants of: B1
Test: ITC
Conditions: with TTD of UHRF1 (residues 134–285) [human]; Cell: Spacer; Sy: TTD

Row | Kd | Variant
1 | 1.15 µM | chain 1 PGPWTKEGKDRIKKLGLTMQYPEGYLEALANREREKENSKREEEEQQEGGFADPRTGKGKWKRKSAGGGPSRAGSPRRTSKKTKVEPY
2 | 1.26 µM | chain 1 PGPWTKEGKDRIKKLGLTMQYPEGYLEALANREREKENSKREEEEQQEGGFASPRTGKGKWKRKSAGGGPSRAGSPRRTDKKTKVEPY

More lines, now with the values behind:

Row | Variant | Kd
3 | chain 1 PGPWTKEGKDRIKKLGLTMQYPEGYLEALANREREKENSKREEEEQQEGGFASPRTGKGKWKAKSAGGGPSRAGSPRRTSKKTKVEPY | 21.4 µM
4 | chain 1 PGPWTKEGKDRIKKLGLTMQYPEGYLEALANREREKENSKREEEEQQEGGFASPRTGKGKWDRKSAGGGPSRAGSPRRTSKKTKVEPY | 5.94 µM
